We go through four compounds from patent US20220313789A1, “TARGETING MELANOCORTIN 3 RECEPTOR FOR TREATMENT/PREVENTION OF EATING, METABOLISM, AND/OR EMOTIONAL DISORDERS” (The Regents of the University of Michigan, priority 2019, published 2022).

In assay [1] the test system is WT mice. Description: CNO administration to WT mice. It is filed as in vivo. The method, then: FIG. 9. […] 24-hour food intake following i.p. injections of saline or CNO. […] Data represented as mean+/−s.em. Data analyzed with Student's paired t-test. n=15 mice
Given the enhanced expression of MC3R in the orexigenic arcuate AgRP neurons, relative to POMC and vGLUT2 neurons, experiments were conducted during development of embodiments herein to determine whether the dominant role of MC3R in the arcuate is to stimulate food intake and increase body weight. A previously characterized (Ref. 18; herein incorporated by reference in its entirety) MC3R-Cre mouse model in which Cre recombinase is exclusively expressed in cells containing MC3R was utilized for these experiments. To selectively activate the MC3R expressing neurons in the arcuate, a Cre dependent AAV viral vector expressing the DREADD (designer receptor exclusively activated by designer drugs) activator hM3Dq was stereotaxically targeted to the arcuate nucleus in MC3R-Cre mice (Refs 22-23; herein incorporated by reference in their entireties) (FIG. 2). It was validated that CNO administration activates ARC-MC3R neurons by measuring the neuronal activity marker, cfos, in response to CNO or saline injections. […] To determine if chronic activation of ARC-MC3R neurons is a viable strategy for increasing food intake and body weight CNO was administered twice daily for five consecutive days. […]

Assay [2] relates to arcuate MC3R expressing neurons (hM3Dq). Description: DREADD (hM3Dq) activation of arcuate MC3R neurons by CNO. It is filed as in vivo, mice. From the text:
(§1) FIG. 2. Potent Bidirectional Regulation of Feeding by DREADD Activation of MC3R ARC neurons. (A) Representative images showing hM3Dq-mCherry (red), and cfos (green), in the arcuate nucleus of a mouse transduced with hM3Dq in arcuate MC3R expressing neurons following CNO or saline administration. Panels on right are an enlargement of the boxed sections. (B) Quantification of cfos expression in the arcuate nucleus following i.p. injections of saline or CNO (unpaired Student's t-test). […] (C) Acute feeding assays following DREADD mediated activation of arcuate MC3R neurons. Activation of MC3R neurons increased food intake at all times tested (2-way ANOVA with Bonferroni post-hoc test, n=10 mice). (D) Change in body weight following a single injection of CNO or saline. […] (E) Daily food intake in MC3R-Cre mice targeted with the inhibitory DREADD hM4Di in arcuate MC3R expressing neurons. […] (F) Change in body weight following long term CNO injections in hM4Di transfected and WT mice. […]
(§2) To evaluate the effects of DREADD mediated manipulation of ARC-MC3R neurons on feeding and body weight, mice were habituated to twice daily vehicle injections (i.p., saline; 200 ul). […] Food intake was measured twice daily (10 am and 6 pm) during chronic i.p. injection experiments. Body weight was measured daily at 10 am immediately prior to administering CNO/saline. […]

For assay [3], the system named is arcuate MC3R expressing neurons (hM4Di). The experiment in a line: DREADD (hM4Di) inhibition of arcuate MC3R neurons by CNO. It is filed as in vivo. The following applies: hM4Di transfected mice vs WT control.
From the text: as §1, §2

The target of assay [4] is T1, MC3R (Mus musculus, UniProt P33033).
T1 construct: from tissue; host or cells: living mice (C57/BL6J background), central nervous system / hypothalamus
T1 sequence (P33033 whole entry): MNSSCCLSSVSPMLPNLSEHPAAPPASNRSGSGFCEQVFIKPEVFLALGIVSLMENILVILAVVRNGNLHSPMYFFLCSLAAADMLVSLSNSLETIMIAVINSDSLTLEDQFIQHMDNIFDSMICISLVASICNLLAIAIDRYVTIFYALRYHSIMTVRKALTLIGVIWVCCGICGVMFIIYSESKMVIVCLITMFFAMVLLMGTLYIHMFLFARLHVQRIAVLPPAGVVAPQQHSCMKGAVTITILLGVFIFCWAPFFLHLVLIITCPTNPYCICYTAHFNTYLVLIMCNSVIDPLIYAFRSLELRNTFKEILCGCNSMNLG
Description: MC3R agonist feeding assays (food intake, body weight) in WT mice. It is filed as in vivo. The following applies: for Acute food intake: 10 mg/kg, i.p., ad libitum fed mice, relative to vehicle; for 24-hour food intake / body weight: single peripheral injection. The method, then: Clozapine-N-Oxide (CNO) was purchased from Enzo Life Sciences. On the day of experiments fresh stock CNO (1 mg/0.1 ml) was prepared in water. CNO was administered via i.p. injections (200 ul Saline; 1 mg/kg). […] (5 ug; 500 nl DMSO).
Behavioral assays were performed on ad libitum fed mice. Mice were single caged for at least one week prior to starting feeding assays. Feeding assays were performed during the light period.
For peripheral administration of MC3R agonist compounds, mice were first habituated to vehicle injections (i.p.; saline in 10% DMSO; 200 ul) for 2-4 consecutive days. Following habituation and consecutive days of stable food intake in response to vehicle injections, agonist compounds were administered (i.p.; 10 mg/kg; saline in 10% DMSO). Food intake was measured following drug or vehicle administration by carefully removing food from the food hopper and weighing on a scale. Cages were changed daily during acute feeding assays to prevent spillage of food from the food hopper.
For central administration of MC3R agonist compounds we first administered vehicle injections (500 nl DMSO) for 2-4 consecutive days to habituate mice to handling and injection. […] Body weight was measured daily immediately prior to injections.

Assay [5] has as its system PVN MC4R neurons. Description: In vivo calcium imaging (GCAMP6s endomicroscopy) of PVN MC4R neurons. Also noted: species or system mice. The note with it: 10 mg/kg, i.p., vs baseline.
Description: (left panels): Heat map displaying relative fluorescence, determined by endomicroscopy (Inscopix) of individual PVN MC4R neurons for five minutes of baseline recording, followed by five minutes of recording in response to a saline injection.
D: Change in florescence following i.p. administration of saline. […] F: Change in fluorescence following i.p. administration of the MC3R agonist C18 (10 mg/kg, i.p.). […] G: Heat plot showing real-time change in fluorescence activity in a representative mouse during baseline and following administration of C18. H: Average trace of the relative change in fluorescence before and after C18 administration. […] Data represents mean+/−s.e.m. for panels D-F. Panels D, F, and I analyzed with paired Student's t-test.
The target in assay [6] is T2, MC3R (Homo sapiens, UniProt P41968). Description: Primary HTS antagonist assay / screen for MC3R antagonists.
T2 sequence (P41968 whole entry): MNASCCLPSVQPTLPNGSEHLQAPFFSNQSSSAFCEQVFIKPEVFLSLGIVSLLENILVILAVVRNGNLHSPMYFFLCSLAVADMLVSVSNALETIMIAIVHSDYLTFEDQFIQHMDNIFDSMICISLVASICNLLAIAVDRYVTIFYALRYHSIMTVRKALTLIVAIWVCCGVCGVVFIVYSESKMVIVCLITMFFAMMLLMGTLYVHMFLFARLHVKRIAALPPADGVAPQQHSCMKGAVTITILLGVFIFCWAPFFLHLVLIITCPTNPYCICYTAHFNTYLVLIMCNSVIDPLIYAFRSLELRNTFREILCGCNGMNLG
From the text: Primary HTS antagonist assay. […] (B): Positive and negative assay with kinetics of antagonist and agonist addition indicated. (C): Scatterplot of corrected and normalized data. Typical Z′ factors are above 0.5.
The target in assay [7] is T3, MC4R (Homo sapiens, UniProt P32245). The following applies: cited from earlier work.
T3 sequence (P32245 whole entry): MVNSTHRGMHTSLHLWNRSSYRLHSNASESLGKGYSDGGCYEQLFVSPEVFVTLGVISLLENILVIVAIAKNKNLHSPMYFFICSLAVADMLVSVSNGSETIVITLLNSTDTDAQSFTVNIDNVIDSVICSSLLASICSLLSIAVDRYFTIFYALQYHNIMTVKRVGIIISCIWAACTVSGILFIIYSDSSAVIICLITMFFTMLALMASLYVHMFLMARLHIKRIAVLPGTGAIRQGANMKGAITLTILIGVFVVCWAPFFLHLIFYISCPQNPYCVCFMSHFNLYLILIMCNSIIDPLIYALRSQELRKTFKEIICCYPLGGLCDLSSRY
The target of assay [8] is T2, MC3R. The following applies: cited from earlier work.
In assay [9] the target is T2, MC3R. The note with it: cited from earlier work. The source holds these as a separate data set.
Assay [10] concerns the target T3, MC4R. The following applies: cited from earlier work. The source holds these as a separate data set.

“Also recorded” adds a separate entry of the source. Bridge positions count the residues as written; N and C are the ends. Square brackets hold non-standard residues; d marks the D form. Ends that are not written are not given here. d2Nal = N[C@H](Cc1ccc2ccccc2c1)C(=O)O; Ac6c = NC1(C(=O)O)CCCCC1; Nle = CCCC[C@H](N)C(=O)O

`C[N+]1([O-])CCN(C2=Nc3cc(Cl)ccc3Nc3ccccc32)CC1` [CNO, Clozapine-N-Oxide]: in [1] (CNO injections, WT littermate control mice), the body weight entry is recorded as “No change in food intake or body weight; also recorded: No effect on BW”. The food intake entry in assay [1] (i.p. CNO vs saline, WT / littermate control mice) is listed as “No change in food intake or body weight; also recorded: No difference in food intake was detected”. Besides, the “cfos expression in the arcuate nucleus” value in [2] (i.p. CNO vs saline, hM3Dq in arcuate MC3R neurons) is on record as “increased cfos expression in the arcuate nucleus; also recorded: Dense cfos expression was observed in ARC-MC3R neurons”. In addition, the “Change in body weight” value in assay [2] (single injection of CNO or saline, hM3Dq mice, CNO 0.1 mg/kg) is “Body weight increased on the day following CNO injection, remaining elevated five days following CNO injection”; in [3] (long term / twice daily CNO), “reduced BW in hM4Di transfected mice; also recorded: reduced both food intake and BW”. Further, the Daily food intake entry in assay [3] (twice daily CNO) was “reduced daily food intake in hM4Di transfected mice; also recorded: reduced both food intake and BW”.

For the compound “Ac-Nle-c[Asp-Pro-Pro-DNal(2′)-Arg-Trp-Lys]-NH2 (Ac-[Nle]DPP[d2Nal]RWK-NH2; lactam 2-8) [PG990]”, in assay [4], the Acute food intake result was “acutely stimulated food intake”, the 24-hour food intake entry is “no significant difference” and the body weight result was “no significant difference”. The weight gain in assay [4] (3 days of treatment) is on record as 8%. In addition, the “24 h food intake” value in assay [4] (PG990 series of peptides, route not given in the sentence) is on record as “increases 24 h food intake”. In [5], the “Fluorescence activity of PVN MC4R neurons” value was “Fluorescence activity was suppressed”.

As for Polymyxin B, in assay [6], the “MC3R over MC4R selectivity” value is “four-fold”. Moreover, in assay [6] (screen of Vanderbilt chemical library), the “potency as MC3R antagonist” value is “submicromolar potency”.

Turning to “[Ac6c-His-DPhe-Arg-Trp-Asp]-NH2 ([Ac6c]H[dF]RWD-NH2; N-terminus assumed; SMILES N=C(N)NCCC[C@H](NC(=O)[C@@H](Cc1ccccc1)NC(=O)[C@H](Cc1c[nH]cn1)NC(=O)C1(N)CCCCC1)C(=O)N[C@@H](Cc1c[nH]c2ccccc12)C(=O)N[C@@H](CC(=O)O)C(N)=O) [FMMC-5, MC3R peptide agonist]”, the EC50 (in general, the concentration needed to bring the measured effect to its halfway point) in [7] is 280 nM. In assay [8], the EC50 was 30 nM. Besides, in assay [4], the Acute food intake entry is reported as “acutely stimulated food intake”, the 24-hour food intake entry is given as “no significant difference” and the body weight result was “no significant difference”. Also, the IC50 (in general, the concentration at which inhibition is half-maximal) in [9] was 10 nM. Besides, in assay [10], the IC50 is 260 nM.
